From patent US20210171647A1 (WUXI BIOLOGICS SHANGHAI, published 2021)

Key:
Test in all cases: ELISA, antibody coated, OX40-ECD.His mutant supernatant; relative to silent alanine substitutions;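 note: captured OX40 mutant protein detected with HRP-labelled anti-His antibody, absorbance read-out, scaled to the mean signal of control mutants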
human OX40-ECD.His P80A = molecular target: T1, human OX40-ECD.His P80A (human, UniProt P43489 29-214)
T1 construct: extracellular domain; not shown: C-terminal His-tag
T1 sequence (looked up): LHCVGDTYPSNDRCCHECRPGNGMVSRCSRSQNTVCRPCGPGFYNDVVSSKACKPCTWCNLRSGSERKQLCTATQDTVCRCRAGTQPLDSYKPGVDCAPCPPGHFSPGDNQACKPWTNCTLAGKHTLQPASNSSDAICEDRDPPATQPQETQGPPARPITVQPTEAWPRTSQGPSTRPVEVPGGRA

human OX40-ECD.His S78A = molecular target: T2, human OX40-ECD.His S78A (human, UniProt P43489 29-214)
T2 construct: extracellular domain; not shown: C-terminal His-tag
T2 sequence (looked up): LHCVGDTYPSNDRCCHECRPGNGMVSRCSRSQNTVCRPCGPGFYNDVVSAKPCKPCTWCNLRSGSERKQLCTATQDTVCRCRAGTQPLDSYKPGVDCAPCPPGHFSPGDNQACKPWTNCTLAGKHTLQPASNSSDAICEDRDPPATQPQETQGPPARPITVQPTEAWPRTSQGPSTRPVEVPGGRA

human OX40-ECD.His G131A = molecular target: T3, human OX40-ECD.His G131A (human, UniProt P43489 29-214)
T3 construct: extracellular domain; not shown: C-terminal His-tag
T3 sequence (looked up): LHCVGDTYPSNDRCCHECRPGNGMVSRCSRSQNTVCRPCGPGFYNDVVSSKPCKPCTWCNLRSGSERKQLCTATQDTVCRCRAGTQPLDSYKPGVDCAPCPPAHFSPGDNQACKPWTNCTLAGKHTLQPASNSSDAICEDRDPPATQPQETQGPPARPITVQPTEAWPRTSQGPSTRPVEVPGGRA

human OX40-ECD.His S54A = molecular target: T4, human OX40-ECD.His S54A (human, UniProt P43489 29-214)
T4 construct: extracellular domain; not shown: C-terminal His-tag
T4 sequence (looked up): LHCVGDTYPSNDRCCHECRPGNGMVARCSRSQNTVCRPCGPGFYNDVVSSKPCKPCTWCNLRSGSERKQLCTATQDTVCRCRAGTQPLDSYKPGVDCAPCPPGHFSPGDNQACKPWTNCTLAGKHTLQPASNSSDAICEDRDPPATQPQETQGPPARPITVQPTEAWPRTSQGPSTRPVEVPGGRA

human OX40-ECD.His M52A = molecular target: T5, human OX40-ECD.His M52A (human, UniProt P43489 29-214)
T5 construct: extracellular domain; not shown: C-terminal His-tag
T5 sequence (looked up): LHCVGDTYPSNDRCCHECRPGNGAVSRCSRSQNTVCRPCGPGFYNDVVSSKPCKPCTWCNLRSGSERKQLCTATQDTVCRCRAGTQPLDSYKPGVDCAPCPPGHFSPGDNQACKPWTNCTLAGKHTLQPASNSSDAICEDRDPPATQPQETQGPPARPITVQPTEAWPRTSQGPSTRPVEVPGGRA

human OX40-ECD.His R108A = molecular target: T6, human OX40-ECD.His R108A (human, UniProt P43489 29-214)
T6 construct: extracellular domain; not shown: C-terminal His-tag
T6 sequence (looked up): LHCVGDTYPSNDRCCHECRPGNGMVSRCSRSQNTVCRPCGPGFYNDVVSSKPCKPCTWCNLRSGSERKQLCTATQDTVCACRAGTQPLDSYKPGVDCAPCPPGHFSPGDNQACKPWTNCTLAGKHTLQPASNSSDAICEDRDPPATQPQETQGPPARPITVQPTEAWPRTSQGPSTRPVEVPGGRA

human OX40-ECD.His R90A = molecular target: T7, human OX40-ECD.His R90A (human, UniProt P43489 29-214)
T7 construct: extracellular domain; not shown: C-terminal His-tag
T7 sequence (looked up): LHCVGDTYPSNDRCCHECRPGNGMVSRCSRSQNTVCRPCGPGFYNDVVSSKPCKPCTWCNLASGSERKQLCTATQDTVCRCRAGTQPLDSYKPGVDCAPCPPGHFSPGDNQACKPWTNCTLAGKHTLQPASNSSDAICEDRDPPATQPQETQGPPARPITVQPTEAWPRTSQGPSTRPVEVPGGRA

human OX40-ECD.His P143A = molecular target: T8, human OX40-ECD.His P143A (human, UniProt P43489 29-214)
T8 construct: extracellular domain; not shown: C-terminal His-tag
T8 sequence (looked up): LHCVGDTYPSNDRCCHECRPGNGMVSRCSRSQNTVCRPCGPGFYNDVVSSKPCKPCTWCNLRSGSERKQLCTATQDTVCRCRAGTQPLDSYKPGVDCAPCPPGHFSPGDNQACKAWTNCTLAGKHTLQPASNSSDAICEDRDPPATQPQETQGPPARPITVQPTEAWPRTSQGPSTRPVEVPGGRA

human OX40-ECD.His A101G = molecular target: T9, human OX40-ECD.His A101G (human, UniProt P43489 29-214)
T9 construct: extracellular domain; not shown: C-terminal His-tag
T9 sequence (looked up): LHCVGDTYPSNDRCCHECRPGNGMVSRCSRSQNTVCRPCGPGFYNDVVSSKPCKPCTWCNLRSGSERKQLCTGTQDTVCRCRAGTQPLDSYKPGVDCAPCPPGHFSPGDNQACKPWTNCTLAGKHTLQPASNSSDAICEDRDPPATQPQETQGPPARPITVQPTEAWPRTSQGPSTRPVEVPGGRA

human OX40-ECD.His N88A = molecular target: T10, human OX40-ECD.His N88A (human, UniProt P43489 29-214)
T10 construct: extracellular domain; not shown: C-terminal His-tag
T10 sequence (looked up): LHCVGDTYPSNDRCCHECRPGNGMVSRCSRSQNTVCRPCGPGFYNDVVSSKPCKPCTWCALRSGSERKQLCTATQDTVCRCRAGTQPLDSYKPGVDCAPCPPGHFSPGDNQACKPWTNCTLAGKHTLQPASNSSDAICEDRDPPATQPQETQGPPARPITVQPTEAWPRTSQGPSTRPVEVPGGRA

B1: 1.134.9-u1-IgG1L (antibody, V domains shown)
VH: QVQLQESGPGLVKPSGTLSLTCAVSGGSISSYNWWSWVRQPPGKGLEWIGEIYHGGNTNYNPSLKSRVTMSVDNSKNQFSLKLSSVTAADTAVYYCARAPGDWGGSPYFDFWGQGTLVTVSS
VL: SSELTQDPAVSVALGQTVRITCQGDNLRTYYASWYQQKPGQAPILLIYGRNKRPSGIPDRFSGSSSGNTASLTITGAQAEDEAAYYCNSRDSSGNPVVFGGGTKLTVL
notes: fully human IgG1, lambda
Human OX40-ECD.His P80A
  Fold Change: 0.944
Human OX40-ECD.His S78A
  Fold Change: 1
Human OX40-ECD.His G131A
  Fold Change: 0.958
Human OX40-ECD.His S54A
  Fold Change: 0.993
Human OX40-ECD.His M52A
  Fold Change: 0.977
Human OX40-ECD.His R108A
  Fold Change: 0.981
Human OX40-ECD.His R90A
  Fold Change: 1.01
Human OX40-ECD.His P143A
  Fold Change: 0.92
Human OX40-ECD.His A101G
  Fold Change: 0.881
Human OX40-ECD.His N88A
  Fold Change: 0.429
